{
  "source": "patent EP2226633A1",
  "molecular_target": "heterodimeric LIF receptor (murine gp130 and LIFRα) on transiently transfected Ba/F3 cells (mouse) (UniProt Q00560)",
  "sequence (Q00560 23-917, chain 1 of 2)": "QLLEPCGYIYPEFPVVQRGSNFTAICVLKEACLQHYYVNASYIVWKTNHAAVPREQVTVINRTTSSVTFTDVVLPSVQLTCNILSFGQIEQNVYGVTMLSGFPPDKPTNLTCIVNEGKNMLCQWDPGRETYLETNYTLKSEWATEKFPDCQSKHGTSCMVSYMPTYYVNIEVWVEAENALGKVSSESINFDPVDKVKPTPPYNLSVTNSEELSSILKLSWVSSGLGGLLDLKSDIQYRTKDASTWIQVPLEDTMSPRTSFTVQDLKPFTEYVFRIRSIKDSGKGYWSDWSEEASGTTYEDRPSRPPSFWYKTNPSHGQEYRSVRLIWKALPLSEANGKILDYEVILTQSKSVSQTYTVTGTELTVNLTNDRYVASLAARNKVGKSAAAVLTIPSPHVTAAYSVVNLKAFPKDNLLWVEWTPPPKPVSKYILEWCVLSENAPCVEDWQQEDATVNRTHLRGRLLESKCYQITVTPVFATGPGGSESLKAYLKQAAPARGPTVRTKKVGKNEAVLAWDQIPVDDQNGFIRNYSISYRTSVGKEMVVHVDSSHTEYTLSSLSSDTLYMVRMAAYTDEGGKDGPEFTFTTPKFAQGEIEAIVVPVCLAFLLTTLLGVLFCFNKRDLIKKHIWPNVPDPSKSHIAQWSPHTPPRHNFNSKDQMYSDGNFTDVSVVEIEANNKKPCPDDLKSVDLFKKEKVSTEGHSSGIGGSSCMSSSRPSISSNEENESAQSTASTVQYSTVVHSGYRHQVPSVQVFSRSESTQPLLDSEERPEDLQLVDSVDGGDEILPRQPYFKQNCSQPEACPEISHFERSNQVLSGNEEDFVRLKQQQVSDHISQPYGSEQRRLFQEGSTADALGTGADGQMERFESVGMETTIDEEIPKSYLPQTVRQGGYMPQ",
  "sequence (P42703 44-1092, chain 2 of 2, further chain)": "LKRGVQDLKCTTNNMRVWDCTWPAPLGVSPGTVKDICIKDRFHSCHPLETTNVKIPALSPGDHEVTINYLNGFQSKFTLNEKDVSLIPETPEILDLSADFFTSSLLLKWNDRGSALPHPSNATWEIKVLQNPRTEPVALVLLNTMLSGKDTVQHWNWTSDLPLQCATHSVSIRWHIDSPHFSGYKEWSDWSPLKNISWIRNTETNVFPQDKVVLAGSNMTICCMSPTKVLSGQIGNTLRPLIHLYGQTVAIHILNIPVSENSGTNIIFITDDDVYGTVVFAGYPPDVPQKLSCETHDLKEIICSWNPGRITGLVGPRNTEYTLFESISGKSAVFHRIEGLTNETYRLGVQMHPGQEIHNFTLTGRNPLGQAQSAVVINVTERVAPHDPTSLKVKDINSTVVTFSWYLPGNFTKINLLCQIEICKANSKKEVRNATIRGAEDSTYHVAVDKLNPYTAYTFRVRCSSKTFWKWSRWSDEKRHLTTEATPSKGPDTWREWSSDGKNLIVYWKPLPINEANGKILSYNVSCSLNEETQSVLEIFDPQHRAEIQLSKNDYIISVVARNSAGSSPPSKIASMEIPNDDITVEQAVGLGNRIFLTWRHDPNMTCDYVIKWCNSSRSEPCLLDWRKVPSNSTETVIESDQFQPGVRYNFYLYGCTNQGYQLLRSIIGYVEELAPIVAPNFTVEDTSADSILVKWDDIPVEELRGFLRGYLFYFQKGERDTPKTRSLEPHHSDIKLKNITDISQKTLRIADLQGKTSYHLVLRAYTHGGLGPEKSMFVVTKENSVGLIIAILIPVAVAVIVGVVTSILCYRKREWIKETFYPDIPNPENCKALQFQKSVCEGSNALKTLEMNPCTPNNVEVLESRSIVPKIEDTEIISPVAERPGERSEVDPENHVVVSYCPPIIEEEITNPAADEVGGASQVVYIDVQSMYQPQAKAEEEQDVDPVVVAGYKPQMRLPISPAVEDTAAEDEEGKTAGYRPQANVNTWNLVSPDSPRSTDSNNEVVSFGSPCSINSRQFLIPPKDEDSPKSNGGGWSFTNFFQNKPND",
  "assay": "cell-based or functional assay",
  "data": [
    {"substance": "human EPO splice variant hS3 (complete loss of exon 3) with C-terminal V5/His tag, produced in HEK293 cells (from UniProt P01588 28-193) (ligand)", "values": [
      {"measurement": "suppression of proliferation of M1 cells (MTT assay, 72 h, 15 nM hS3)", "value": 10, "unit": "%"}
    ]}
  ]
}
